Measurements published in paper PMC6298963.
Where “and” joins values, the source holds several entries; their conditions need not be identical. Equal values may be shown once. Read-outs that look alike come from different tables or passages of the source.

Tests used:
[1] = target: full length human APOBEC3G (human) (UniProt Q9HC16); assay: atomic force microscopy (protein volume analysis); 32 nM A3G with 4 nM hybrid DNA; 50 mM HEPES pH 7.5, 100 mM NaCl, 5 mM MgCl2, 1 mM DTT, 37 °C 30 min; on APS-mica, tapping mode in air; stoichiometry of A3G on the DNA from volume; fractions from areas under the Gaussians
[2] = target: full length human APOBEC3G (human) (UniProt Q9HC16); assay: atomic force microscopy (protein volume analysis); 80 nM A3G with 4 nM hybrid DNA; 50 mM HEPES pH 7.5, 100 mM NaCl, 5 mM MgCl2, 1 mM DTT, 37 °C 30 min; on APS-mica, tapping mode in air; stoichiometry of A3G on the DNA from volume
[3] = target: full length human APOBEC3G (human) (UniProt Q9HC16); assay: atomic force microscopy (protein volume analysis); 16 nM A3G with 4 nM hybrid DNA; 50 mM HEPES pH 7.5, 100 mM NaCl, 5 mM MgCl2, 1 mM DTT, 37 °C 30 min; on APS-mica, tapping mode in air; stoichiometry of A3G on the DNA from volume
[4] = target: full length human APOBEC3G (human) (UniProt Q9HC16); assay: atomic force microscopy (protein volume analysis); 80 nM A3G with 4 nM hybrid DNA; 50 mM HEPES pH 7.5, 100 mM NaCl, 5 mM MgCl2, 1 mM DTT, 37 °C 30 min; on APS-mica, tapping mode in air; stoichiometry of A3G on the DNA from volume; remark: listed apart in the source

For “full length human APOBEC3G (from UniProt Q9HC16 1-384) (enzyme)”, the percent of A3G-DNA complexes with A3G dimers [1] was 78%, the percent of A3G-DNA complexes with A3G tetramers [1] was 22% and the stoichiometry N [1] was 2 and 4. The percent of A3G-DNA complexes with A3G trimers [2] was 88%, the percent of A3G-DNA complexes with higher order A3G oligomers [2] was 12% and the stoichiometry N [2] was 3. For the same substance, the stoichiometry N [3] was 2 and 3, the percent of A3G-DNA complexes with A3G trimers [4] was 82% and the percent of A3G-DNA complexes with higher order A3G oligomers [4] was 18%. For the same substance, the stoichiometry N [4] was 6.
